Assay results reported in patent US20240150495A1.

What was measured:
[1] = biological target: human ανβ3 integrin (Chemicon) (human) (UniProt P06756); assay: ELISA on coated human ανβ3 integrin (1 ug/ml), binder at 0.010 µg/ml; positive control
[2] = biological target: human ανβ3 integrin (Chemicon) (human) (UniProt P06756); assay: ELISA on coated human ανβ3 integrin (1 ug/ml), binder at 2.500 µg/ml; positive control
[3] = biological target: human ανβ3 integrin (Chemicon) (human) (UniProt P06756); assay: ELISA on coated human ανβ3 integrin (1 ug/ml), binder at 0.002 µg/ml; positive control
[4] = biological target: human ανβ3 integrin (Chemicon) (human) (UniProt P06756); assay: ELISA on coated human ανβ3 integrin (1 ug/ml), binder at 0.625 µg/ml; positive control
[5] = biological target: human ανβ3 integrin (Chemicon) (human) (UniProt P06756); assay: ELISA on coated human ανβ3 integrin (1 ug/ml), binder at 10 µg/ml; positive control
[6] = biological target: human ανβ3 integrin (Chemicon) (human) (UniProt P06756); assay: ELISA on coated human ανβ3 integrin (1 ug/ml), binder at 0.039 µg/ml; positive control
[7] = biological target: human ανβ3 integrin (Chemicon) (human) (UniProt P06756); assay: ELISA on coated human ανβ3 integrin (1 ug/ml), binder at 0.156 µg/ml; positive control

human ανβ3 integrin (Chemicon) (human), sequence (P06756 31-1048 limits assumed, chain 1 of 2): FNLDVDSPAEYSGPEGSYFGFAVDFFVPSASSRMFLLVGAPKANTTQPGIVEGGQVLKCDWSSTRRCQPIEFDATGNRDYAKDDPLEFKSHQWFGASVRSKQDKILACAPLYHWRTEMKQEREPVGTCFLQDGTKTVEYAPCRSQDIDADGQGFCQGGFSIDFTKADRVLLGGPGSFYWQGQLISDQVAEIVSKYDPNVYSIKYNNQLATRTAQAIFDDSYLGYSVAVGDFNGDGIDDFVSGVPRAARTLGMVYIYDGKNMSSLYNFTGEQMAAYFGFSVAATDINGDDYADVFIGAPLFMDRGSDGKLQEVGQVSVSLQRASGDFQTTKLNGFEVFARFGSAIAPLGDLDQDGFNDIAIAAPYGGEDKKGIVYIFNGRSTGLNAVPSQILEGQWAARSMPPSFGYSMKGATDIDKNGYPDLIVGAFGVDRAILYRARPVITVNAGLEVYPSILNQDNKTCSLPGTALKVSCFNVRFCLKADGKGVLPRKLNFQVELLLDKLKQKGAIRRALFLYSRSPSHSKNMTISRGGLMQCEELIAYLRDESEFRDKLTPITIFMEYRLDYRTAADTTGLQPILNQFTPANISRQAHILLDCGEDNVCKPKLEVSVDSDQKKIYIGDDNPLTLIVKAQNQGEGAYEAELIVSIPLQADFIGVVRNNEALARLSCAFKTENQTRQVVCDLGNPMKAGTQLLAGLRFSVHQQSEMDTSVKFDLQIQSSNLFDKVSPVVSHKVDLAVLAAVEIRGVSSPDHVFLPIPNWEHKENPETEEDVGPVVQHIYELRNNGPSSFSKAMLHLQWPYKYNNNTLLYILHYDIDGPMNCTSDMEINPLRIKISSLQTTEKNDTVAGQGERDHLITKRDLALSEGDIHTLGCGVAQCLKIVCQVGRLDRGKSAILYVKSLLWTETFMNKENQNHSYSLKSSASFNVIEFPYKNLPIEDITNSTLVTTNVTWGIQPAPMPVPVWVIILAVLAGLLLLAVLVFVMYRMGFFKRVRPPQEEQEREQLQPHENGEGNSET
human ανβ3 integrin (Chemicon) (human), sequence (P05106 27-788 limits assumed, chain 2 of 2, further chain): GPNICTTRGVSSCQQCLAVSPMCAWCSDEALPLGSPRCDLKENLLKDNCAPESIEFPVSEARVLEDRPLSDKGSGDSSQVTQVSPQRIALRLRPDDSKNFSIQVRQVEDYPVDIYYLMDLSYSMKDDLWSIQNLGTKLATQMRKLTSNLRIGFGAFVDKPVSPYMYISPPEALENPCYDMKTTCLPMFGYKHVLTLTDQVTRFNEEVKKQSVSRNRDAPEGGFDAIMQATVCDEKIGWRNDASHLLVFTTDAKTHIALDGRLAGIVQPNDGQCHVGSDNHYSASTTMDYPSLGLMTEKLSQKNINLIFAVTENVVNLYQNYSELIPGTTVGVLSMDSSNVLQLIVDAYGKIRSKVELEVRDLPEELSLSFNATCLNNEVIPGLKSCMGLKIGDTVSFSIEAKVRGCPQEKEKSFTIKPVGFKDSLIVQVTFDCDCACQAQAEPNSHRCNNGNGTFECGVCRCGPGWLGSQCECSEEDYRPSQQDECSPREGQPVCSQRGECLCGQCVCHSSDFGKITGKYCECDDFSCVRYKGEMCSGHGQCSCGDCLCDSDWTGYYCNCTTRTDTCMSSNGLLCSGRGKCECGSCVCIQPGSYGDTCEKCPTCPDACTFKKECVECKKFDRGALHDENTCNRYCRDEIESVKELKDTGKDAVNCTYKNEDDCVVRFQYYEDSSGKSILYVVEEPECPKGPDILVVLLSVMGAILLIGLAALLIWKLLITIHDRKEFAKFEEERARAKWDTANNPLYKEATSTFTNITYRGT

OD 450 [1]: 0.157 OD 450 | OD 450 [2]: 0.644 OD 450 | OD 450 [3]: 0.077 OD 450 | OD 450 [4]: 0.657 OD 450 | OD 450 [5]: 0.647 OD 450 | OD 450 [6]: 0.391 OD 450 | OD 450 [7]: 0.626 OD 450
Substance: commercial mouse anti human ανβ3 integrin mAb LM609 (Chemicon) (antibody)
